In PMC11025564 (The journal of physical chemistry. B, 2018):
Where a chain is given by its changes, count along the chain named. Numbers in names are those of the source. Each block holds one binder with its values, some of them ahead of it.

What was measured:
[1] = target: T1, integrin β3(P685-F727) TM peptide C687S W715H (human, UniProt P05106 711-753, C687S | W715H); assay: ITC
T1 chain (looked up): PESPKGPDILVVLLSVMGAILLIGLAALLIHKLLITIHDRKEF

[2] = target: T2, integrin β3(P685-F727) TM peptide C687S W715I (human, UniProt P05106 711-753, C687S | W715I); assay: ITC
T2 chain (looked up): T1 chain (looked up) with H31I

[3] = target: T3, integrin β3(P685-F727) TM peptide C687S W715F (human, UniProt P05106 711-753, C687S | W715F); assay: ITC
T3 chain (looked up): T1 chain (looked up) with H31F

[4] = target: T4, human integrin β3(P685-F727) TM peptide incorporating β3(C687S) (human, UniProt P05106 711-753, C687S); assay: ITC
T4 chain (looked up): T1 chain (looked up) with H31W

[5] = target: T5, integrin β3(P685-F727) TM peptide C687S W715A (human, UniProt P05106 711-753, C687S | W715A); assay: ITC
T5 chain (looked up): T1 chain (looked up) with H31A

[6] = target: T6, integrin β3(P685-F727) TM peptide C687S W715Y (human, UniProt P05106 711-753, C687S | W715Y); assay: ITC
T6 chain (looked up): T1 chain (looked up) with H31Y

[7] = target: T2, integrin β3(P685-F727) TM peptide C687S …; assay: intrinsic tryptophan fluorescence emission
[8] = target: T4, human integrin β3(P685-F727) TM peptide …; assay: intrinsic tryptophan fluorescence emission

KXY (association equilibrium constant on the mole fraction scale) [4]: 1000 ± 20
dH [4]: -16.4 ± 0.2 kcal/mol
Binder: ALEERAIPIWWVLVGVLGGLLLLTILVLAMFKVGFFKRNRP (peptide, UniProt P08514 989-1029, looked up) [integrin αIIb(A958-P998) TM peptide W988F]

KXY (association equilibrium constant on the mole fraction scale) [4]: 3540 ± 40
dH [4]: -16.4 ± 0.1 kcal/mol
Binder: ALEERAIPIWWVLVGVLGGLLLLTILVLAMHKVGFFKRNRP (peptide, UniProt P08514 989-1029, looked up) [integrin αIIb(A958-P998) TM peptide W988H]

KXY (association equilibrium constant on the mole fraction scale) [4]: 2900 ± 100
dH [4]: -13.7 ± 0.2 kcal/mol
Binder: ALEERAIPIWWVLVGVLGGLLLLTILVLAMVKVGFFKRNRP (peptide, UniProt P08514 989-1029, looked up) [integrin αIIb(A958-P998) TM peptide W988V]

KXY (association equilibrium constant on the mole fraction scale) [4]: 2530 ± 50
dH [4]: -15.4 ± 0.1 kcal/mol
B3: integrin αIIb(A958-P998) TM peptide W967H (peptide)
chain: not shown

KXY (association equilibrium constant on the mole fraction scale) [4]: 7000 ± 200
dH [4]: -14.9 ± 0.2 kcal/mol
Binder: ALEERAIPIHVVLVGVLGGLLLLTILVLAMWKVGFFKRNRP (peptide, UniProt P08514 989-1029, looked up) [integrin αIIb(A958-P998) TM peptide W967H/W968V]

KXY (association equilibrium constant on the mole fraction scale) [4]: 9800 ± 400
dH [4]: -14 ± 0.2 kcal/mol
Binder: ALEERAIPIYVVLVGVLGGLLLLTILVLAMWKVGFFKRNRP (peptide, UniProt P08514 989-1029, looked up) [integrin αIIb(A958-P998) TM peptide W967Y/W968V]

KXY (association equilibrium constant on the mole fraction scale) [4]: 6400 ± 200
dH [4]: -18.4 ± 0.2 kcal/mol
Binder: ALEERAIPIAVVLVGVLGGLLLLTILVLAMWKVGFFKRNRP (peptide, UniProt P08514 989-1029, looked up) [integrin αIIb(A958-P998) TM peptide W967A/W968V]

KXY (association equilibrium constant on the mole fraction scale) [4]: 2320 ± 50
dH [4]: -19.2 ± 0.2 kcal/mol
Binder: ALEERAIPIWWVLVGVLGGLLLLTILVLAMYKVGFFKRNRP (peptide, UniProt P08514 989-1029, looked up) [integrin αIIb(A958-P998) TM peptide W988Y]

KXY (association equilibrium constant on the mole fraction scale) [4]: 6500 ± 200
dH [4]: -15.7 ± 0.2 kcal/mol
Binder: ALEERAIPIFVVLVGVLGGLLLLTILVLAMWKVGFFKRNRP (peptide, UniProt P08514 989-1029, looked up) [integrin αIIb(A958-P998) TM peptide W967F/W968V]

KXY (association equilibrium constant on the mole fraction scale) [4]: 3320 ± 70
dH [4]: -17.3 ± 0.1 kcal/mol
Binder: ALEERAIPIWWVLVGVLGGLLLLTILVLAMAKVGFFKRNRP (peptide, UniProt P08514 989-1029, looked up) [integrin αIIb(A958-P998) TM peptide W988A]

Continued, binder first:

B1: human integrin αIIb(A958-P998) TM peptide (peptide)
chain: not shown
KXY (association equilibrium constant on the mole fraction scale) [1]: 820 ± 40
dH [1]: -8.7 ± 0.2 kcal/mol
KXY (association equilibrium constant on the mole fraction scale) [2]: 2600 ± 70
dH [2]: -9.6 ± 0.1 kcal/mol
KXY (association equilibrium constant on the mole fraction scale) [3]: 2230 ± 50
dH [3]: -17.2 ± 0.2 kcal/mol
KXY (association equilibrium constant on the mole fraction scale) [4]: 3250 ± 60
dH [4]: -16 ± 0.1 kcal/mol
KXY (association equilibrium constant on the mole fraction scale) [5]: 1300 ± 40
dH [5]: -15.5 ± 0.3 kcal/mol
KXY (association equilibrium constant on the mole fraction scale) [6]: 1320 ± 40
dH [6]: -14.2 ± 0.2 kcal/mol

B2: integrin αIIb(A958-P998) TM peptide W967F (peptide)
chain: not shown
KXY (association equilibrium constant on the mole fraction scale) [4]: 4030 ± 90
dH [4]: -12.6 ± 0.1 kcal/mol

B4: integrin αIIb(A958-P998) TM peptide W967V (peptide)
chain: not shown
KXY (association equilibrium constant on the mole fraction scale) [4]: 4450 ± 80
dH [4]: -13.1 ± 0.1 kcal/mol

Binder: ALEERAIPIVWVLVGVLGGLLLLTILVLAMHKVGFFKRNRP (peptide, UniProt P08514 989-1029, looked up) [integrin αIIb(A958-P998) TM peptide W988H/W967V]
binding result [7]: binds

Binder: ALEERAIPIVVVLVGVLGGLLLLTILVLAMWKVGFFKRNRP (peptide, UniProt P08514 989-1029, looked up) [integrin αIIb(A958-P998) TM peptide W967V/W968V]
KXY (association equilibrium constant on the mole fraction scale) [4]: 2680 ± 60
dH [4]: -17.8 ± 0.2 kcal/mol

B5: integrin αIIb(A958-P998) TM peptide W967Y (peptide)
chain: not shown
KXY (association equilibrium constant on the mole fraction scale) [4]: 4700 ± 100
dH [4]: -13.7 ± 0.2 kcal/mol

Binder: ALEERAIPIVVVLVGVLGGLLLLTILVLAMHKVGFFKRNRP (peptide, UniProt P08514 989-1029, looked up) [integrin αIIb(A958-P998) TM peptide W967V/W968V/W988H]
binding result [8]: binds

Binder: ALEERAIPIWVVLVGVLGGLLLLTILVLAMWKVGFFKRNRP (peptide, UniProt P08514 989-1029, looked up) [integrin αIIb(A958-P998) TM peptide W968V]
KXY (association equilibrium constant on the mole fraction scale) [4]: 13200 ± 600
dH [4]: -14.3 ± 0.2 kcal/mol
